Source: US20140162945A1 (BEIJING HANMI PHARMACEUTICAL, published 2014)
Bridges are numbered along the chain shown (N, C = ends). Where no end group is shown, it is not given here. [ ]: non-standard residue; d: D form. The star is where a group is joined. Palmitoyl = CCCCCCCCCCCCCCCC(=O)*; Aib = CC(C)(N)C(=O)O

Tests used:
human GLP-1 receptor = human GLP-1 receptor (human, UniProt P43220 24-463); assay: cell-based or functional assay
human GIP receptor = molecular target: T1, human GIP receptor (human, UniProt P48546 22-466); assay: cell-based or functional assay
T1 sequence (looked up): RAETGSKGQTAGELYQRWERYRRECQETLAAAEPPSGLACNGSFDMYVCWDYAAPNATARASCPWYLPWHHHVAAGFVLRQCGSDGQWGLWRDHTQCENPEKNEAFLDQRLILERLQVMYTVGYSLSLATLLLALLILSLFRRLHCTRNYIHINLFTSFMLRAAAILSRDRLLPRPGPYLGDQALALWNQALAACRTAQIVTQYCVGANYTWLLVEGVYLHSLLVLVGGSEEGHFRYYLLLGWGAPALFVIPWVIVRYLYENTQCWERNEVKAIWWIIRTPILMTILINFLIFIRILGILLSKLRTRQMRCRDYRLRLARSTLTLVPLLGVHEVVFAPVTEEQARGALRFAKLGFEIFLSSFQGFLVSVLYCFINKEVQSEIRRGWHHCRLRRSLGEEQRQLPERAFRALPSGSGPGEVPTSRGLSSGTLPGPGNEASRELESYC

human GLP-1 receptor, sequence (P43220 24-463): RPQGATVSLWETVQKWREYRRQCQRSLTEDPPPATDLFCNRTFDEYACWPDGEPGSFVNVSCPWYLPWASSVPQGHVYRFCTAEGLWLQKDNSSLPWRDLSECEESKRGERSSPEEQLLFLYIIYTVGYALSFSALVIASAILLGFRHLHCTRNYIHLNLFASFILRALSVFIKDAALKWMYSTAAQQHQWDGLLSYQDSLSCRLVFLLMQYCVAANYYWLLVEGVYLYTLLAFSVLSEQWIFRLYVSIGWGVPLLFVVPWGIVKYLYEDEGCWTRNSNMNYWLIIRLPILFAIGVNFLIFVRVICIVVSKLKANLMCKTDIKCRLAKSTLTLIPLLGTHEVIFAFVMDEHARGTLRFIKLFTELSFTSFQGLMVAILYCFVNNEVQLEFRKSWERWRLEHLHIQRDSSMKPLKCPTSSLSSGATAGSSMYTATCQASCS

Row | Binder | EC50, GLP-1 Receptor cAMP induction (human GLP-1 receptor) | Relative Potency, GLP-1 Receptor (human GLP-1 receptor) | EC50, GIP Receptor cAMP induction (human GIP receptor) | Relative Potency, GIP Receptor (human GIP receptor)
1 | Y[Aib]EGTFTSDYSEYMEKEAVREFIAWLVKG-NH2 (lactam 12-16; N-terminus assumed; SMILES CC[C@H](C)[C@H](NC(=O)[C@H](Cc1ccccc1)NC(=O)[C@H](CCC(=O)O)NC(=O)[C@H](CCCNC(=N)N)NC(=O)[C@@H](NC(=O)[C@H](C)NC(=O)[C@H](CCC(=O)O)NC(=O)[C@@H]1CCCCNC(=O)CC[C@H](NC(=O)[C@H](CO)NC(=O)[C@H](Cc2ccc(O)cc2)NC(=O)[C@H](CC(=O)O)NC(=O)[C@H](CO)NC(=O)[C@@H](NC(=O)[C@H](Cc2ccccc2)NC(=O)[C@@H](NC(=O)CNC(=O)[C@H](CCC(=O)O)NC(=O)C(C)(C)NC(=O)[C@@H](N)Cc2ccc(O)cc2)[C@@H](C)O)[C@@H](C)O)C(=O)N[C@@H](Cc2ccc(O)cc2)C(=O)N[C@@H](CCSC)C(=O)N[C@@H](CCC(=O)O)C(=O)N1)C(C)C)C(=O)N[C@@H](C)C(=O)N[C@@H](Cc1c[nH]c2ccccc12)C(=O)N[C@@H](CC(C)C)C(=O)N[C@H](C(=O)N[C@@H](CCCCN)C(=O)NCC(N)=O)C(C)C) [Analog 052-2] | 0.824 nM | 133% | 0.064 nM | 147%
2 | Y[Aib]EGTFTSDYSIYMEKEAVREFIAWLVKGKKKKK-NH2 (N-terminus assumed; SMILES CC[C@H](C)[C@H](NC(=O)[C@H](Cc1ccccc1)NC(=O)[C@H](CCC(=O)O)NC(=O)[C@H](CCCNC(=N)N)NC(=O)[C@@H](NC(=O)[C@H](C)NC(=O)[C@H](CCC(=O)O)NC(=O)[C@H](CCCCN)NC(=O)[C@H](CCC(=O)O)NC(=O)[C@H](CCSC)NC(=O)[C@H](Cc1ccc(O)cc1)NC(=O)[C@@H](NC(=O)[C@H](CO)NC(=O)[C@H](Cc1ccc(O)cc1)NC(=O)[C@H](CC(=O)O)NC(=O)[C@H](CO)NC(=O)[C@@H](NC(=O)[C@H](Cc1ccccc1)NC(=O)[C@@H](NC(=O)CNC(=O)[C@H](CCC(=O)O)NC(=O)C(C)(C)NC(=O)[C@@H](N)Cc1ccc(O)cc1)[C@@H](C)O)[C@@H](C)O)[C@@H](C)CC)C(C)C)C(=O)N[C@@H](C)C(=O)N[C@@H](Cc1c[nH]c2ccccc12)C(=O)N[C@@H](CC(C)C)C(=O)N[C@H](C(=O)N[C@@H](CCCCN)C(=O)NCC(=O)N[C@@H](CCCCN)C(=O)N[C@@H](CCCCN)C(=O)N[C@@H](CCCCN)C(=O)N[C@@H](CCCCN)C(=O)N[C@@H](CCCCN)C(N)=O)C(C)C) [Analog 060] | 2.97 nM | 36.8% | 2.5 nM | 8.4%
3 | Y[Aib]EGTFTSDYSIYMEKEAVKEFIAWLVKG-NH2 (N-terminus assumed; SMILES CC[C@H](C)[C@H](NC(=O)[C@H](Cc1ccccc1)NC(=O)[C@H](CCC(=O)O)NC(=O)[C@H](CCCCN)NC(=O)[C@@H](NC(=O)[C@H](C)NC(=O)[C@H](CCC(=O)O)NC(=O)[C@H](CCCCN)NC(=O)[C@H](CCC(=O)O)NC(=O)[C@H](CCSC)NC(=O)[C@H](Cc1ccc(O)cc1)NC(=O)[C@@H](NC(=O)[C@H](CO)NC(=O)[C@H](Cc1ccc(O)cc1)NC(=O)[C@H](CC(=O)O)NC(=O)[C@H](CO)NC(=O)[C@@H](NC(=O)[C@H](Cc1ccccc1)NC(=O)[C@@H](NC(=O)CNC(=O)[C@H](CCC(=O)O)NC(=O)C(C)(C)NC(=O)[C@@H](N)Cc1ccc(O)cc1)[C@@H](C)O)[C@@H](C)O)[C@@H](C)CC)C(C)C)C(=O)N[C@@H](C)C(=O)N[C@@H](Cc1c[nH]c2ccccc12)C(=O)N[C@@H](CC(C)C)C(=O)N[C@H](C(=O)N[C@@H](CCCCN)C(=O)NCC(N)=O)C(C)C) [Analog 057] | 4.23 nM |  | 0.57 nM | 36.8%
4 | Y[Aib]EGTFTSDYSIYMEKEAVREFIAWLVK(Palmitoyl)G-NH2 [Analog 046] | 6.52 nM |  |  | 
5 | Y[Aib]EGTFTSDYSIYMEKEAVEEFIAWLVKG-NH2 (lactam 16-20; N-terminus assumed; SMILES CC[C@H](C)[C@H](NC(=O)[C@H](Cc1ccccc1)NC(=O)[C@H](CCC(=O)O)NC(=O)[C@@H]1CCC(=O)NCCCC[C@H](NC(=O)[C@H](CCC(=O)O)NC(=O)[C@H](CCSC)NC(=O)[C@H](Cc2ccc(O)cc2)NC(=O)[C@@H](NC(=O)[C@H](CO)NC(=O)[C@H](Cc2ccc(O)cc2)NC(=O)[C@H](CC(=O)O)NC(=O)[C@H](CO)NC(=O)[C@@H](NC(=O)[C@H](Cc2ccccc2)NC(=O)[C@@H](NC(=O)CNC(=O)[C@H](CCC(=O)O)NC(=O)C(C)(C)NC(=O)[C@@H](N)Cc2ccc(O)cc2)[C@@H](C)O)[C@@H](C)O)[C@@H](C)CC)C(=O)N[C@@H](CCC(=O)O)C(=O)N[C@@H](C)C(=O)N[C@@H](C(C)C)C(=O)N1)C(=O)N[C@@H](C)C(=O)N[C@@H](Cc1c[nH]c2ccccc12)C(=O)N[C@@H](CC(C)C)C(=O)N[C@H](C(=O)N[C@@H](CCCCN)C(=O)NCC(N)=O)C(C)C) [Analog 053-2] | 2.96 nM | 37% | 0.48 nM | 35.4%
6 | Y[Aib]EGTFTSDYSEYMEKEAVREFIAWLVKG-NH2 (N-terminus assumed; SMILES CC[C@H](C)[C@H](NC(=O)[C@H](Cc1ccccc1)NC(=O)[C@H](CCC(=O)O)NC(=O)[C@H](CCCNC(=N)N)NC(=O)[C@@H](NC(=O)[C@H](C)NC(=O)[C@H](CCC(=O)O)NC(=O)[C@H](CCCCN)NC(=O)[C@H](CCC(=O)O)NC(=O)[C@H](CCSC)NC(=O)[C@H](Cc1ccc(O)cc1)NC(=O)[C@H](CCC(=O)O)NC(=O)[C@H](CO)NC(=O)[C@H](Cc1ccc(O)cc1)NC(=O)[C@H](CC(=O)O)NC(=O)[C@H](CO)NC(=O)[C@@H](NC(=O)[C@H](Cc1ccccc1)NC(=O)[C@@H](NC(=O)CNC(=O)[C@H](CCC(=O)O)NC(=O)C(C)(C)NC(=O)[C@@H](N)Cc1ccc(O)cc1)[C@@H](C)O)[C@@H](C)O)C(C)C)C(=O)N[C@@H](C)C(=O)N[C@@H](Cc1c[nH]c2ccccc12)C(=O)N[C@@H](CC(C)C)C(=O)N[C@H](C(=O)N[C@@H](CCCCN)C(=O)NCC(N)=O)C(C)C) [Analog 052-1] | 2.5 nM |  | 0.57 nM | 36.8%
7 | Y[Aib]EGTFTSDYSIYMEKEAVEEFIAWLVKG-NH2 (N-terminus assumed; SMILES CC[C@H](C)[C@H](NC(=O)[C@H](Cc1ccccc1)NC(=O)[C@H](CCC(=O)O)NC(=O)[C@H](CCC(=O)O)NC(=O)[C@@H](NC(=O)[C@H](C)NC(=O)[C@H](CCC(=O)O)NC(=O)[C@H](CCCCN)NC(=O)[C@H](CCC(=O)O)NC(=O)[C@H](CCSC)NC(=O)[C@H](Cc1ccc(O)cc1)NC(=O)[C@@H](NC(=O)[C@H](CO)NC(=O)[C@H](Cc1ccc(O)cc1)NC(=O)[C@H](CC(=O)O)NC(=O)[C@H](CO)NC(=O)[C@@H](NC(=O)[C@H](Cc1ccccc1)NC(=O)[C@@H](NC(=O)CNC(=O)[C@H](CCC(=O)O)NC(=O)C(C)(C)NC(=O)[C@@H](N)Cc1ccc(O)cc1)[C@@H](C)O)[C@@H](C)O)[C@@H](C)CC)C(C)C)C(=O)N[C@@H](C)C(=O)N[C@@H](Cc1c[nH]c2ccccc12)C(=O)N[C@@H](CC(C)C)C(=O)N[C@H](C(=O)N[C@@H](CCCCN)C(=O)NCC(N)=O)C(C)C) [Analog 053-1] | 12.7 nM |  | 0.5 nM | 34%
